Values quoted from earlier work in patent US20250282866A1, “TREATMENT OF DISEASES RELATED TO ATP-BINDING CASSETTE TRANSPORTER 1 DYSFUNCTION USING TREM2 AGONISTS” (VIGIL NEUROSCIENCE, INC., priority 2020, published 2025).

T1: human TREM2 (Homo sapiens, UniProt Q9NZC2)
T1 sequence (Q9NZC2 19-230): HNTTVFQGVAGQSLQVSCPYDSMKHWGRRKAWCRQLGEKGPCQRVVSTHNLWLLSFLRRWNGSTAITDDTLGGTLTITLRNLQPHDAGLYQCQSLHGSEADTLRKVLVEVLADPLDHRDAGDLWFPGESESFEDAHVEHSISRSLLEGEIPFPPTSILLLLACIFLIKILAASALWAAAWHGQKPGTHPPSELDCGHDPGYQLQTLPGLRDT


Target: T1, human TREM2
Details: for Binding Signal (fold over 6E7 Parental antibody) 1st screen 110 nM or 10 nM: values printed without asterisk, concentration 110 nM or 10 nM (footnote a not given)

Binding Signal (fold over 6E7 Parental antibody) 1st screen 110 nM or 10 nM	Binding Signal (fold over 6E7 Parental antibody) 2nd screen 2 nM	Binding Signal (fold over 6E7 Parental antibody) 2nd screen 10 nM	Molecule
4.48 fold over 6E7 Parental antibod	3.41 fold over 6E7 Parental antibod	4.16 fold over 6E7 Parental antibod	V40: 6E7 variant: VH T30G, T58V, F110S; VL N56L, S93R (antibody, V domains shown) VH: EVQLVQSGAEVKKPGESLKISCKGSGYSFGSYWIAWVRQMPGKGLEWMGIIYPGDSDVRYSPSFQGQVTISADKSISTAYLQWSSLKASDTAMYFCARQRTFYYDSSDYSDYWGQGTLVTVSS VL: DIQMTQSPSSVSASVGDRVTITCRASQGISSWLAWYQQKPGKAPKLLIYAASSLQLGVPSRFSGSGSGTDFTLTISSLQPEDFATYFCQQADRFPRTFGQGTKLEIK
4.10 fold over 6E7 Parental antibod	3.39 fold over 6E7 Parental antibod	4.16 fold over 6E7 Parental antibod	V50: 6E7 variant: VH T30G, I50V, F110L; VL L54R, F94L (antibody, V domains shown) VH: EVQLVQSGAEVKKPGESLKISCKGSGYSFGSYWIAWVRQMPGKGLEWMGVIYPGDSDTRYSPSFQGQVTISADKSISTAYLQWSSLKASDTAMYFCARQRTFYYDSSDYLDYWGQGTLVTVSS VL: DIQMTQSPSSVSASVGDRVTITCRASQGISSWLAWYQQKPGKAPKLLIYAASSRQNGVPSRFSGSGSGTDFTLTISSLQPEDFATYFCQQADSLPRTFGQGTKLEIK
6.51 fold over 6E7 Parental antibod	5.02 fold over 6E7 Parental antibod	6.58 fold over 6E7 Parental antibod	V49: 6E7 variant: VH T30N, I50T, Y60L, Q99S; VL L54R, F94Y (antibody, V domains shown) VH: EVQLVQSGAEVKKPGESLKISCKGSGYSFNSYWIAWVRQMPGKGLEWMGTIYPGDSDTRLSPSFQGQVTISADKSISTAYLQWSSLKASDTAMYFCARSRTFYYDSSDYFDYWGQGTLVTVSS VL: DIQMTQSPSSVSASVGDRVTITCRASQGISSWLAWYQQKPGKAPKLLIYAASSRQNGVPSRFSGSGSGTDFTLTISSLQPEDFATYFCQQADSYPRTFGQGTKLEIK
2.81 fold over 6E7 Parental antibod	1.83 fold over 6E7 Parental antibod	3.18 fold over 6E7 Parental antibod	V51: 6E7 variant: VH T58V, Q99G, Y112N; VL L54R (antibody, V domains shown) VH: EVQLVQSGAEVKKPGESLKISCKGSGYSFTSYWIAWVRQMPGKGLEWMGIIYPGDSDVRYSPSFQGQVTISADKSISTAYLQWSSLKASDTAMYFCARGRTFYYDSSDYFDNWGQGTLVTVSS VL: DIQMTQSPSSVSASVGDRVTITCRASQGISSWLAWYQQKPGKAPKLLIYAASSRQNGVPSRFSGSGSGTDFTLTISSLQPEDFATYFCQQADSFPRTFGQGTKLEIK
2.42 fold over 6E7 Parental antibod	2.30 fold over 6E7 Parental antibod	2.54 fold over 6E7 Parental antibod	V48: 6E7 variant: VH T30G, T58V, Q99M; VL N56T, F94L (antibody, V domains shown) VH: EVQLVQSGAEVKKPGESLKISCKGSGYSFGSYWIAWVRQMPGKGLEWMGIIYPGDSDVRYSPSFQGQVTISADKSISTAYLQWSSLKASDTAMYFCARMRTFYYDSSDYFDYWGQGTLVTVSS VL: DIQMTQSPSSVSASVGDRVTITCRASQGISSWLAWYQQKPGKAPKLLIYAASSLQTGVPSRFSGSGSGTDFTLTISSLQPEDFATYFCQQADSLPRTFGQGTKLEIK
